Data on four substances can be found in PMC4908164.

A word on the Kd: it is a measure of binding affinity in units of concentration.

The target of test [1] is Yeast cytochrome c peroxidase C128A with MSKT as the first four N-terminal residues (yeast) (UniProt P00431). Kind of test: paramagnetic relaxation enhancement NMR; intermolecular PRE: 200 uM [15N,2H] CcP WT (C128A) with 200 uM unlabelled MTSL- or MTS-tagged N38C, N200C or T288C CcP; 20 mM NaPi, 100 mM NaCl, pH 6.0, 293 K; fraction bound and KD estimated from PRE-driven ensemble docking with an assumed correlation time of 45 ns.

The target in test [2] is cytochrome c peroxidase (Saccharomyces cerevisiae) (UniProt P00431). Conditions: cited from earlier work.

cytochrome c, sequence (P00044 2-109): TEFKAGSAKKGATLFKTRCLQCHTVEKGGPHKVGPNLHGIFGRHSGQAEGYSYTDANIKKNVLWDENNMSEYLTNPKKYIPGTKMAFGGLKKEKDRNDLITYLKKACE

Turning to “Yeast cytochrome c peroxidase C128A N38C tagged with MTSL (or diamagnetic MTS) at C38 (from UniProt P00431 71-361) (enzyme)”, in test [1], the dissociation constant (Kd) was 360 µM and the fraction bound was 0.4.
With “Yeast cytochrome c peroxidase C128A N200C tagged with MTSL (or diamagnetic MTS) at C200 (from UniProt P00431 71-361) (enzyme)”, in test [1], the equilibrium dissociation constant (Kd) is 360 µM and the fraction bound is 0.4.
As to “Yeast cytochrome c peroxidase C128A T288C tagged with MTSL (or diamagnetic MTS) at C288 (from UniProt P00431 71-361) (enzyme)”, in test [1], the Kd is 360 µM and the fraction bound was 0.4.
For cytochrome c (from UniProt P00044), the Kd in test [2] was 5 µM.
